This note sets out measurements from patent publication US20250368745A1 (published 2025).

The chains are these.
B1: SA301a LC-H92A (antibody, V domains shown)
VH: QVQLQESGPGLVKPSQTLSLTCTVSGYSITSDYNSHWIRQPPGKGLEWIGYIHYSGSTNYNPSLKSRVTISRDTSKNQFSLKLSSVTAADTAVYYCARNYGSIYVNYFDYWGQGTLVTVSS
VL: EIVLTQSPATLSLSPGERATLSCSASSSVSYMYWYQQKPGQAPRPLIYRTSNLASGIPARFSGSGSGTDFTLTISSLEPEDFAVYYCQQYASYPTFGGGTKVEIK
B2: SA301a LC-H92T (antibody, V domains shown)
VH: QVQLQESGPGLVKPSQTLSLTCTVSGYSITSDYNSHWIRQPPGKGLEWIGYIHYSGSTNYNPSLKSRVTISRDTSKNQFSLKLSSVTAADTAVYYCARNYGSIYVNYFDYWGQGTLVTVSS
VL: EIVLTQSPATLSLSPGERATLSCSASSSVSYMYWYQQKPGQAPRPLIYRTSNLASGIPARFSGSGSGTDFTLTISSLEPEDFAVYYCQQYTSYPTFGGGTKVEIK
B3: SA301a LC-S93A (antibody, V domains shown)
VH: QVQLQESGPGLVKPSQTLSLTCTVSGYSITSDYNSHWIRQPPGKGLEWIGYIHYSGSTNYNPSLKSRVTISRDTSKNQFSLKLSSVTAADTAVYYCARNYGSIYVNYFDYWGQGTLVTVSS
VL: EIVLTQSPATLSLSPGERATLSCSASSSVSYMYWYQQKPGQAPRPLIYRTSNLASGIPARFSGSGSGTDFTLTISSLEPEDFAVYYCQQYHAYPTFGGGTKVEIK
B4: SA301a LC-H92E (antibody, V domains shown)
VH: QVQLQESGPGLVKPSQTLSLTCTVSGYSITSDYNSHWIRQPPGKGLEWIGYIHYSGSTNYNPSLKSRVTISRDTSKNQFSLKLSSVTAADTAVYYCARNYGSIYVNYFDYWGQGTLVTVSS
VL: EIVLTQSPATLSLSPGERATLSCSASSSVSYMYWYQQKPGQAPRPLIYRTSNLASGIPARFSGSGSGTDFTLTISSLEPEDFAVYYCQQYESYPTFGGGTKVEIK
B5: SA301a LC-S93Y (antibody, V domains shown)
VH: QVQLQESGPGLVKPSQTLSLTCTVSGYSITSDYNSHWIRQPPGKGLEWIGYIHYSGSTNYNPSLKSRVTISRDTSKNQFSLKLSSVTAADTAVYYCARNYGSIYVNYFDYWGQGTLVTVSS
VL: EIVLTQSPATLSLSPGERATLSCSASSSVSYMYWYQQKPGQAPRPLIYRTSNLASGIPARFSGSGSGTDFTLTISSLEPEDFAVYYCQQYHYYPTFGGGTKVEIK
B6: SA301a LC-S93F (antibody, V domains shown)
VH: QVQLQESGPGLVKPSQTLSLTCTVSGYSITSDYNSHWIRQPPGKGLEWIGYIHYSGSTNYNPSLKSRVTISRDTSKNQFSLKLSSVTAADTAVYYCARNYGSIYVNYFDYWGQGTLVTVSS
VL: EIVLTQSPATLSLSPGERATLSCSASSSVSYMYWYQQKPGQAPRPLIYRTSNLASGIPARFSGSGSGTDFTLTISSLEPEDFAVYYCQQYHFYPTFGGGTKVEIK
B7: SA301a LC-Y94G (antibody, V domains shown)
VH: QVQLQESGPGLVKPSQTLSLTCTVSGYSITSDYNSHWIRQPPGKGLEWIGYIHYSGSTNYNPSLKSRVTISRDTSKNQFSLKLSSVTAADTAVYYCARNYGSIYVNYFDYWGQGTLVTVSS
VL: EIVLTQSPATLSLSPGERATLSCSASSSVSYMYWYQQKPGQAPRPLIYRTSNLASGIPARFSGSGSGTDFTLTISSLEPEDFAVYYCQQYHSGPTFGGGTKVEIK
B8: SA301a LC-S93K (antibody, V domains shown)
VH: QVQLQESGPGLVKPSQTLSLTCTVSGYSITSDYNSHWIRQPPGKGLEWIGYIHYSGSTNYNPSLKSRVTISRDTSKNQFSLKLSSVTAADTAVYYCARNYGSIYVNYFDYWGQGTLVTVSS
VL: EIVLTQSPATLSLSPGERATLSCSASSSVSYMYWYQQKPGQAPRPLIYRTSNLASGIPARFSGSGSGTDFTLTISSLEPEDFAVYYCQQYHKYPTFGGGTKVEIK
B9: SA301a LC-S93D (antibody, V domains shown)
VH: QVQLQESGPGLVKPSQTLSLTCTVSGYSITSDYNSHWIRQPPGKGLEWIGYIHYSGSTNYNPSLKSRVTISRDTSKNQFSLKLSSVTAADTAVYYCARNYGSIYVNYFDYWGQGTLVTVSS
VL: EIVLTQSPATLSLSPGERATLSCSASSSVSYMYWYQQKPGQAPRPLIYRTSNLASGIPARFSGSGSGTDFTLTISSLEPEDFAVYYCQQYHDYPTFGGGTKVEIK
B10: SA301a LC-S93V (antibody, V domains shown)
VH: QVQLQESGPGLVKPSQTLSLTCTVSGYSITSDYNSHWIRQPPGKGLEWIGYIHYSGSTNYNPSLKSRVTISRDTSKNQFSLKLSSVTAADTAVYYCARNYGSIYVNYFDYWGQGTLVTVSS
VL: EIVLTQSPATLSLSPGERATLSCSASSSVSYMYWYQQKPGQAPRPLIYRTSNLASGIPARFSGSGSGTDFTLTISSLEPEDFAVYYCQQYHVYPTFGGGTKVEIK
B11: SA301a LC-Y94N (antibody, V domains shown)
VH: QVQLQESGPGLVKPSQTLSLTCTVSGYSITSDYNSHWIRQPPGKGLEWIGYIHYSGSTNYNPSLKSRVTISRDTSKNQFSLKLSSVTAADTAVYYCARNYGSIYVNYFDYWGQGTLVTVSS
VL: EIVLTQSPATLSLSPGERATLSCSASSSVSYMYWYQQKPGQAPRPLIYRTSNLASGIPARFSGSGSGTDFTLTISSLEPEDFAVYYCQQYHSNPTFGGGTKVEIK
B12: SA301a LC-S93M (antibody, V domains shown)
VH: QVQLQESGPGLVKPSQTLSLTCTVSGYSITSDYNSHWIRQPPGKGLEWIGYIHYSGSTNYNPSLKSRVTISRDTSKNQFSLKLSSVTAADTAVYYCARNYGSIYVNYFDYWGQGTLVTVSS
VL: EIVLTQSPATLSLSPGERATLSCSASSSVSYMYWYQQKPGQAPRPLIYRTSNLASGIPARFSGSGSGTDFTLTISSLEPEDFAVYYCQQYHMYPTFGGGTKVEIK
B13: SA301a LC-Y94F (antibody, V domains shown)
VH: QVQLQESGPGLVKPSQTLSLTCTVSGYSITSDYNSHWIRQPPGKGLEWIGYIHYSGSTNYNPSLKSRVTISRDTSKNQFSLKLSSVTAADTAVYYCARNYGSIYVNYFDYWGQGTLVTVSS
VL: EIVLTQSPATLSLSPGERATLSCSASSSVSYMYWYQQKPGQAPRPLIYRTSNLASGIPARFSGSGSGTDFTLTISSLEPEDFAVYYCQQYHSFPTFGGGTKVEIK
B14: SA301a LC-S93P (antibody, V domains shown)
VH: QVQLQESGPGLVKPSQTLSLTCTVSGYSITSDYNSHWIRQPPGKGLEWIGYIHYSGSTNYNPSLKSRVTISRDTSKNQFSLKLSSVTAADTAVYYCARNYGSIYVNYFDYWGQGTLVTVSS
VL: EIVLTQSPATLSLSPGERATLSCSASSSVSYMYWYQQKPGQAPRPLIYRTSNLASGIPARFSGSGSGTDFTLTISSLEPEDFAVYYCQQYHPYPTFGGGTKVEIK
B15: SA301a LC-Y94S (antibody, V domains shown)
VH: QVQLQESGPGLVKPSQTLSLTCTVSGYSITSDYNSHWIRQPPGKGLEWIGYIHYSGSTNYNPSLKSRVTISRDTSKNQFSLKLSSVTAADTAVYYCARNYGSIYVNYFDYWGQGTLVTVSS
VL: EIVLTQSPATLSLSPGERATLSCSASSSVSYMYWYQQKPGQAPRPLIYRTSNLASGIPARFSGSGSGTDFTLTISSLEPEDFAVYYCQQYHSSPTFGGGTKVEIK
B16: SA301a LC-S93L (antibody, V domains shown)
VH: QVQLQESGPGLVKPSQTLSLTCTVSGYSITSDYNSHWIRQPPGKGLEWIGYIHYSGSTNYNPSLKSRVTISRDTSKNQFSLKLSSVTAADTAVYYCARNYGSIYVNYFDYWGQGTLVTVSS
VL: EIVLTQSPATLSLSPGERATLSCSASSSVSYMYWYQQKPGQAPRPLIYRTSNLASGIPARFSGSGSGTDFTLTISSLEPEDFAVYYCQQYHLYPTFGGGTKVEIK
B17: SA301a LC-S93Q (antibody, V domains shown)
VH: QVQLQESGPGLVKPSQTLSLTCTVSGYSITSDYNSHWIRQPPGKGLEWIGYIHYSGSTNYNPSLKSRVTISRDTSKNQFSLKLSSVTAADTAVYYCARNYGSIYVNYFDYWGQGTLVTVSS
VL: EIVLTQSPATLSLSPGERATLSCSASSSVSYMYWYQQKPGQAPRPLIYRTSNLASGIPARFSGSGSGTDFTLTISSLEPEDFAVYYCQQYHQYPTFGGGTKVEIK
B18: SA301a LC-Y94R (antibody, V domains shown)
VH: QVQLQESGPGLVKPSQTLSLTCTVSGYSITSDYNSHWIRQPPGKGLEWIGYIHYSGSTNYNPSLKSRVTISRDTSKNQFSLKLSSVTAADTAVYYCARNYGSIYVNYFDYWGQGTLVTVSS
VL: EIVLTQSPATLSLSPGERATLSCSASSSVSYMYWYQQKPGQAPRPLIYRTSNLASGIPARFSGSGSGTDFTLTISSLEPEDFAVYYCQQYHSRPTFGGGTKVEIK
B19: SA301a LC-S93I (antibody, V domains shown)
VH: QVQLQESGPGLVKPSQTLSLTCTVSGYSITSDYNSHWIRQPPGKGLEWIGYIHYSGSTNYNPSLKSRVTISRDTSKNQFSLKLSSVTAADTAVYYCARNYGSIYVNYFDYWGQGTLVTVSS
VL: EIVLTQSPATLSLSPGERATLSCSASSSVSYMYWYQQKPGQAPRPLIYRTSNLASGIPARFSGSGSGTDFTLTISSLEPEDFAVYYCQQYHIYPTFGGGTKVEIK
B20: SA301a LC-Y94L (antibody, V domains shown)
VH: QVQLQESGPGLVKPSQTLSLTCTVSGYSITSDYNSHWIRQPPGKGLEWIGYIHYSGSTNYNPSLKSRVTISRDTSKNQFSLKLSSVTAADTAVYYCARNYGSIYVNYFDYWGQGTLVTVSS
VL: EIVLTQSPATLSLSPGERATLSCSASSSVSYMYWYQQKPGQAPRPLIYRTSNLASGIPARFSGSGSGTDFTLTISSLEPEDFAVYYCQQYHSLPTFGGGTKVEIK
B21: SA301a LC-S93G (antibody, V domains shown)
VH: QVQLQESGPGLVKPSQTLSLTCTVSGYSITSDYNSHWIRQPPGKGLEWIGYIHYSGSTNYNPSLKSRVTISRDTSKNQFSLKLSSVTAADTAVYYCARNYGSIYVNYFDYWGQGTLVTVSS
VL: EIVLTQSPATLSLSPGERATLSCSASSSVSYMYWYQQKPGQAPRPLIYRTSNLASGIPARFSGSGSGTDFTLTISSLEPEDFAVYYCQQYHGYPTFGGGTKVEIK

The test deals with T1, human IL-18BP (human, UniProt O95998 31-194).
T1 construct: UniProt printed as 095998; also called hIL-18BP
T1 sequence: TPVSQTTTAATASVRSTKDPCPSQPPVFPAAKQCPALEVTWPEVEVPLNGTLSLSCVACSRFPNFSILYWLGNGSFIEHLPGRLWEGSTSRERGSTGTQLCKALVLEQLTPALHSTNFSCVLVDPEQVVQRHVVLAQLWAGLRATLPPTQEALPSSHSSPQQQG
Nature of the test: BLI, apparent KD. A general note: Biolayer interferometry detects binding as a change in optical thickness at a sensor tip.
Consider B1, for which the Kd amounted to 0.95 nM.
Next, B2: 0.15 nM; B3: 0.52 nM.
Turning to B4, the Kd was found to be 0.36 nM.
As for B5, the figure is 0.19 nM.
Next, B6: 0.15 nM; B7: 0.12 nM.
Next, B8: 0.16 nM; B9: 0.23 nM; B10: 0.19 nM.
Consider B11, for which the Kd was found to be 0.22 nM.
As for B12, the figure is 0.14 nM.
Next, B13: 0.13 nM; B14: 0.41 nM; B15: 0.63 nM.
For the molecule B16, the Kd was found to be 0.23 nM.
As for B17, the Kd was 0.24 nM.
As for B18, the figure is 0.29 nM; as for B19, 0.21 nM; as for B20, 0.16 nM.
As for B21, the figure is 0.08 nM.
